Assay results as given in paper PMC7605111.
Where “and” joins values, the source holds several entries; their conditions need not be identical. Identical values can stand only once.

Columns and labels:
[1] = target: class II fructose-1,6-bisphosphatase from Francisella tularensis (Francisella tularensis); assay: crystal structure
[2] = target: class II fructose-1,6-bisphosphatase from Francisella tularensis (Francisella tularensis); assay: SEC

Substance: class II fructose-1,6-bisphosphatase from Francisella tularensis (enzyme)
- stoichiometry N [1]: 4
- stoichiometry N [2]: 2 and 4
